Experimental data taken from patent US20250215071A1, “Novel Mcl-1 inhibitor and combination of Mcl-1 and a BH3 mimetic, such as a Bcl-2 inhibitor” (NETRIS PHARMA, priority 2022, published 2025).

Test system: H322 cells
Test: Cleaved active caspase-3 immunostaining of resected H322 tumors
Assay type: in vivo, NMRI nude mice
Method: FIG. 3. COMMD2 is required for UNC5B-induced cell death and tumor suppression. (A): Silencing COMMD2 inhibits UNC5B-induced DNA fragmentation. Stable Hela cells inducible for UNC5B were transfected with two distinct siRNA scramble (siCTRL) or targeting COMMD2 (siCOMMD2-1 and -2). Upon treatment for 18 hours with the indicated concentrations of doxycycline (Dox), DNA fragmentation was evaluated through FACS analysis (n=3, **** p<0.0001, Ordinary two-way ANOVA). Values are given as means±SEM. (B, C, D): Tumor growth inhibition driven by netrin-1 interference necessitates UNC5B and COMMD2. NMRI nude mice were engrafted with stable H322 cells, knock-down for luciferase (sgLUC, used as a non-targeting control), UNC5B (sgUNC5B) or COMMD2 (sgCOMMD2), generated with CRISPR-Cas-9-KRAB strategy. Tumors obtained from nude mice engrafted with stable H322 cells were lysed and gene expression was evaluated by quantitative RT-PCR (n=2-3, *p<0.05, Kruskal-Wallis test with Dunn's multiple comparisons test) (B). After tumor volume reached 50 mm^3, mice were intravenously treated three time per week with anti-netrin-1 (NP137) or control (Iso-mAb) antibodies and tumor growth was evaluated (n=10 mice/group, ^nsp>0.05, *p<0.05, Mann-Whitney test, two-tailed) (C). A histogram illustrating tumor volumes at 35 days after first treatment is indicated in (D) (n=10 mice/group, ^nsp>0.05, *p<0.05, *** p<0.001, Kruskal-Wallis test with uncorrected Dunn's test). (E). Silencing of UNC5B and COMMD2 restrains in vivo NP137-induced apoptosis. After sacrificing the mice, tumors were resected and apoptosis was quantified by immunostaining of active cleaved caspase-3. […]
5-week-old female athymic NMRI nude mice were obtained from Janvier Labs (Saint Bertevin, France). […] Tumor size was measured three times per week with a caliper. Tumor volume was calculated according to the formula v=0.5× (l×w2), where v is volume, l is length, and w is width. […]

B1: NP137: humanized anti-netrin-1 monoclonal antibody, VH SEQ ID NO: 22, VL SEQ ID NO: 16, human IgG1 (antibody, V domains shown)
VH: QVQLQQSGPGLVKPSQTLSLTCAISGYTFTSYNMHWVRQATGQGLEWMGAIYPGNGDTSYNQKFKGRLTISKDTSKNQVVLTMTNMDPVDTATYYCARGGTGFAYWGQG
VL: DIQMTQSPSSLSASVGDRVTITCKASQSVSNDVAWYQQKPGQAPRLLIYYASNRYTGIPPRFSGSGYGTDFTLTINNIESEDAAYYFCQQDYSSPWTFGQG
modifications: human IgG1 constant region; humanized variant; MISC_FEATURE - CDR according to IGMT
For B1, which “percentage of caspase-3 positive cells” value (H322 tumors knocked-out for COMMD2) is on record?
Its value is “failed to detect a similar increase”.

And the “percentage of caspase-3 positive cells” value (H322 tumors knocked-out for UNC5B)?
The value was “failed to detect a similar increase”.

What about the “apoptosis, cleaved active caspase-3 positive cells” value (control H322 tumors (sgLUC)) of the same molecule?
Its value is “associated with apoptosis induction”.
